Measurements from publication PMC10284121 (2023).

target: Pin1 phosphopeptide (fluorescein-labelled) (Homo sapiens, UniProt Q13526); experiment: fluorescence anisotropy
Sequence (Q13526 whole entry): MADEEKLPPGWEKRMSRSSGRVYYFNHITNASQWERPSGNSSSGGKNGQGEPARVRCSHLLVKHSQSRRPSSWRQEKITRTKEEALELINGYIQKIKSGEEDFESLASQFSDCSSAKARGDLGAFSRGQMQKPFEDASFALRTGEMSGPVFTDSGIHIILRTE

| Binder | Kd [µM] |
| --- | --- |
| 14-3-3γ (protein, phosphopeptide, fluorescein label, MG1 present (2-3 h)) VDREQLVQKARLAEQAERYDDMAAAMKNVTELNEPLSNEERNLLSVAYKNVVGARRSSWRVISSIEQKTSADGNEKKIEMVRAYREKIEKELEAVCQDVLSLLDNYLIKNCSETQYESKVFYLKMKGDYYRYLAEVATGEKRATVVESSEKAYSEAHEISKEHMQPTHPIRLGLALNYSVFYYEIQNAPEQACHLAKTAFDDAIAELDTLNEDSYKDSTLIMQLLRDNLTLWTSDQQDDDGGEGNN | 1.5 |
| 14-3-3γ (protein, phosphopeptide, fluorescein label) VDREQLVQKARLAEQAERYDDMAAAMKNVTELNEPLSNEERNLLSVAYKNVVGARRSSWRVISSIEQKTSADGNEKKIEMVRAYREKIEKELEAVCQDVLSLLDNYLIKNCSETQYESKVFYLKMKGDYYRYLAEVATGEKRATVVESSEKAYSEAHEISKEHMQPTHPIRLGLALNYSVFYYEIQNAPEQACHLAKTAFDDAIAELDTLNEDSYKDSTLIMQLLRDNLTLWTSDQQDDDGGEGNN | 30 |
| 14-3-3γ (protein, phosphopeptide, fluorescein label, fusicoccin-A present) VDREQLVQKARLAEQAERYDDMAAAMKNVTELNEPLSNEERNLLSVAYKNVVGARRSSWRVISSIEQKTSADGNEKKIEMVRAYREKIEKELEAVCQDVLSLLDNYLIKNCSETQYESKVFYLKMKGDYYRYLAEVATGEKRATVVESSEKAYSEAHEISKEHMQPTHPIRLGLALNYSVFYYEIQNAPEQACHLAKTAFDDAIAELDTLNEDSYKDSTLIMQLLRDNLTLWTSDQQDDDGGEGNN | 2.9 |
| 14-3-3γ (protein, phosphopeptide, fluorescein label, MG1 present, pH 8.0) VDREQLVQKARLAEQAERYDDMAAAMKNVTELNEPLSNEERNLLSVAYKNVVGARRSSWRVISSIEQKTSADGNEKKIEMVRAYREKIEKELEAVCQDVLSLLDNYLIKNCSETQYESKVFYLKMKGDYYRYLAEVATGEKRATVVESSEKAYSEAHEISKEHMQPTHPIRLGLALNYSVFYYEIQNAPEQACHLAKTAFDDAIAELDTLNEDSYKDSTLIMQLLRDNLTLWTSDQQDDDGGEGNN | ~0.6 |

The next lines start with the values.

| Kd [µM] | Binder |
| --- | --- |
| ~5.2 | 14-3-3γ (protein, phosphopeptide, fluorescein label, MG1 present, pH 6.5) VDREQLVQKARLAEQAERYDDMAAAMKNVTELNEPLSNEERNLLSVAYKNVVGARRSSWRVISSIEQKTSADGNEKKIEMVRAYREKIEKELEAVCQDVLSLLDNYLIKNCSETQYESKVFYLKMKGDYYRYLAEVATGEKRATVVESSEKAYSEAHEISKEHMQPTHPIRLGLALNYSVFYYEIQNAPEQACHLAKTAFDDAIAELDTLNEDSYKDSTLIMQLLRDNLTLWTSDQQDDDGGEGNN |
| 5.4 | 14-3-3γ (protein, phosphopeptide, fluorescein label, MG1 present (10 min)) VDREQLVQKARLAEQAERYDDMAAAMKNVTELNEPLSNEERNLLSVAYKNVVGARRSSWRVISSIEQKTSADGNEKKIEMVRAYREKIEKELEAVCQDVLSLLDNYLIKNCSETQYESKVFYLKMKGDYYRYLAEVATGEKRATVVESSEKAYSEAHEISKEHMQPTHPIRLGLALNYSVFYYEIQNAPEQACHLAKTAFDDAIAELDTLNEDSYKDSTLIMQLLRDNLTLWTSDQQDDDGGEGNN |
